{"source": "patent US20110166203A1", "about": "“ANTI-HEPATITIS C VIRUS COMPOSITION” (OSAKA UNIVERSITY, priority 2008, published 2011)", "key": {"PA28γ": {"system": "PA28γ", "test": "PA28γ detection by western blotting in shRNA-transfected Huh7 OK1 clones", "format": "cell-based, human", "details": "clones C5 and C7 vs Huh7 Ok1 cells and control shRNA cells", "description": "The DNA fragment was incorporated between the BamHI and Hind III sites of a pSilencer 2.1 U6-hygro vector (Ambion; Austin, Tex.), and introduced by lipofection to Huh7 OK1 cells sensitive to the hepatitis C virus JFH1 strain. The cells were then cultured for 1 week in a 10% fetal bovine serum Dulbecco's modified Eagle's medium supplemented with 0.1 mg/mL hygromycin. The cells were cloned by limiting dilution, and two clones, named C5 and C7, with low PA28γ expression levels were selected by western blotting.\nSeparately, a commercially available pSilencer 2.1-U6 hygro negative control vector (Ambion) having no complementarity to human PA28γ gene was treated by the same procedure to establish single clones that had the same PA28γ expression level as the parental strain (control cells; hereinafter, also referred to as “control shRNA”).\nThe Huh7 Ok1 cells, the control cells, and the PA28γ knockdown cells C5 and C7 were lysed, and the lysate was subjected to SDS-polyacrylamide gel electrophoresis for the detection of PA28γ and β-actin by western blotting using anti-PA28γ antibody (Affiniti) and anti-actin antibody (Sigma Aldrich Japan)."}, "hepatitis C virus JFH1": {"system": "hepatitis C virus JFH1", "test": "Virus titer of culture supernatant after JFH1 infection of PA28γ constant knockdown cells", "format": "cell-based", "details": "empty plasmid transfected; JFH1 MOI 0.024; 10 days culture; knockdown cells vs control cells", "description": "The control cells (control shRNA) and PA28γknockdown cells C5 and C7 were transfected with pEFFLAGGspGBK or pEFFLAGGsPA28gammaSI plasmid. The next day, the medium was replaced with 10% fetal bovine serum Dulbecco's modified Eagle's medium supplemented with 3 μg/mL puromycin, and the cells were further cultured for 24 hours. The surviving cells were then inoculated in a 12-well plate (2.5×10^4 cells/well), and infected with hepatitis C virus JFH1 at an MOI of 0.024.\nThe JFH1 gene-containing plasmid pJFH1 was cut with XbaI enzyme, blunted with Mung Bean nuclease, and virus RNA was synthesized using a MEGAscript T7 kit (Ambion). The virus RNA was transfected into Huh7 OK1 cells by electroporation under the conditions 260 V and 960 μF. […] Using Huh7 OK1, the virus titer (ffu/mL) of the culture supernatant was measured according to the method of Wakita et al. (Nat. Med. 11:791-796, 2005), as follows. The Huh7 OK1 cells were infected with the culture supernatant to be measured at 37° C. for 3 hours. […]\nThe rabbit anti-NS5A antibody prepared by immunizing the peptide from the amino acid residues 409 to 422 of NS5A according to the method described in J. Virol. 79:13473-13482, 2005 was allowed to react with Alexa Fluor® 488-anti-rabbit IgG antibody (Molecular Probe), and the fluorescent cell foci were counted to calculate the virus titer."}, "HCV replicon RNA": {"system": "HCV replicon RNA", "test": "HCV replicon Renilla luciferase replication assay in control and PA28γ knockdown cells", "format": "cell-based, hepatitis C virus", "details": "knockdown cells C5 (KD5) vs control cells (Cntrl5), 24, 48, 96 h normalized to 4 h", "description": "Virus replication by replicon was evaluated in the same manner except that the control cells and knockdown cells prepared in Section 1 above were used, as described in Krieger et al. (Krieger et al., J. Virol., 75:4614-4624, 2001).\nA cDNA encoding Renilla luciferase was introduced between AscI and PmeI of a plasmid pFK-1389 neo/NS3-3′/NK5.1, instead of a neogene. The resulting plasmid pFK-1389 hRL/NS3-3/NK5.1 was cleaved at ScaI, and […] in vitro using a MEGAscript T7 kit (Ambion). A suspension of Huh7 cells (10×10^6 cells/mL) was prepared, and 400 μl of the suspension was mixed with 10 μg of in vitro transcription RNA. This was followed by electroporation performed under the conditions 270 V and 960 μF using a Gene Pulser™ (Bio-Rad). The electroporated cells were suspended in 25-ml medium, and inoculated in a 12-well culture plate (1 ml/well). Then, luciferase activities at hour 4, 24, 48, and 96 post infection were measured using a Renilla Luciferase assay system (Promega).\nThe synthesized HCV replicon RNA, and the HCV replicon GND RNA with the inactivated RNA polymerase activity were transfected into control shRNA cells and PA28γ knockdown cells C5, and luciferase activity was measured.\nThe measured values in each combination were normalized by dividing the values after 24, 48, and 96 hours by the value after 4 hours."}, "PA28γ gene": {"system": "PA28γ gene", "test": "Selection of RNA interference target sequence by PA28γ expression suppressing effect", "format": "cell-based, human", "details": "among four target sequences from the open reading frame of the PA28γ gene", "source_text": "A DNA fragment that encodes a short hairpin RNA for knocking down the human PA28γ gene by RNA interference was designed according to the following procedure.\nThe following four sequences were selected as the target sequences from the open reading frame of the PA28γ gene.\nThe sequence of SEQ ID NO: 4 corresponds to positions 16 to 36 of the PA28γ coding region represented by SEQ ID NO: 5."}}}
{"molecule": "shRNA against PA28γ: short hairpin RNA against target sequence SEQ ID NO: 4 (…), encoded by DNA fragment SEQ ID NO: 6 in pSilencer 2.1 U6-hygro vector (nucleic acid, the letters are possibly those of the target site) DNA: GGATCCGGTGGATCAGGAAGTGAAGTTCAAGAGACTTCACTTCCTGATCCACCTTTTTTGGAAAAGCTT", "values": [{"measurement": "PA28γ expression level", "setting": "PA28γ", "result": "lower PA28γ expression levels"}, {"measurement": "virus production (virus titer)", "setting": "hepatitis C virus JFH1", "result": "significantly lower"}, {"measurement": "luciferase value (virus replication by replicon)", "setting": "HCV replicon RNA", "result": "no difference in luciferase value"}, {"measurement": "PA28γ expression suppressing effect", "setting": "PA28γ gene", "result": "remarkable expression suppressing effect"}]}
